In US20190112340A1:

Experiments:
[1] = target: bRSV F 391-2 DS-Cav1 (bovine RSV, strain 391-2) (UniProt P22167); test: Fab binding to purified bRSV F trimer (Octet BLI as in Example 1)
[2] = target: bRSV F 391-2 post-F (bovine RSV, strain 391-2) (UniProt P22167); test: as above
[3] = target: bRSV F 391-2 post-F (bovine RSV, strain 391-2) (UniProt P22167); test: Motavizumab binding to stressed post-F protein as a fraction of the untreated protein (physical stability)
[4] = target: sc9-10 DS-Cav1 Q98C, Q361C L95M-I221M-R429K (B18537); test: BLI (Octet), F on Ni-NTA tips, Fab in solution
[5] = target: RSV F sc9-41 DS-Cav1 (human RSV subtype A (strain A2)) (UniProt P03420); test: BLI (Octet), F on Ni-NTA tips, Fab in solution
[6] = target: RSV F sc9-10 DS-Cav1 (human RSV subtype A (strain A2)); test: BLI (Octet), F on Ni-NTA tips, Fab in solution
[7] = target: sc9 DS-Cav1-105Q; test: BLI (Octet), F on Ni-NTA tips, Fab in solution
[8] = target: sc9-10 DS-Cav1 A149C, Y458C S46G-E92D-S215P-K465Q (A2); test: BLI (Octet), F on Ni-NTA tips, Fab in solution
[9] = target: RSV F DS-Cav1 (human RSV subtype A (strain A2)) (UniProt P03420); test: BLI (Octet), F on Ni-NTA tips, Fab in solution
[10] = target: RSV F sc9-42 DS-Cav1 (human RSV subtype A (strain A2)) (UniProt P03420); test: BLI (Octet), F on Ni-NTA tips, Fab in solution
[11] = target: sc9-10 DS-Cav1 A149C, Y458C S46G-N67I-E92D-S215P-K465Q (A2); test: BLI (Octet), F on Ni-NTA tips, Fab in solution
[12] = target: sc10 DS-Cav1; test: BLI (Octet), F on Ni-NTA tips, Fab in solution
[13] = target: sc9-10 DS-Cav1 Q98C, Q361C S46G-E92D-L95M-S215P-I217P-I221M-R429K-K465Q (Long (VR26)); test: BLI (Octet), F on Ni-NTA tips, Fab in solution
[14] = target: sc9-10 DS-Cav1 N183GC,N428C; test: BLI (Octet), F on Ni-NTA tips, Fab in solution
[15] = target: sc9-19 DS-Cav1; test: BLI (Octet), F on Ni-NTA tips, Fab in solution
[16] = target: sc4 DS-Cav1; test: BLI (Octet), F on Ni-NTA tips, Fab in solution
[17] = target: RSV F sc9-9 DS-Cav1 (human RSV subtype A (strain A2)) (UniProt P03420); test: BLI (Octet), F on Ni-NTA tips, Fab in solution
[18] = target: sc8 DS-Cav1; test: BLI (Octet), F on Ni-NTA tips, Fab in solution
[19] = target: RSV F sc9 DS-Cav1 (human RSV subtype A (strain A2)); test: BLI (Octet), F on Ni-NTA tips, Fab in solution
[20] = target: sc9-10 DS-Cav1 A149C, Y458C S46G-S215P-K465Q (A2); test: BLI (Octet), F on Ni-NTA tips, Fab in solution
[21] = target: sc9-10 A DS-Cav1 A149C, Y458C; test: BLI (Octet), F on Ni-NTA tips, Fab in solution
[22] = target: sc9-10 DS-Cav1 N183GC, N428C S46G-N67I-E92D-S215P-K465Q (A2); test: BLI (Octet), F on Ni-NTA tips, Fab in solution
[23] = target: sc11 DS-Cav1; test: BLI (Octet), F on Ni-NTA tips, Fab in solution
[24] = target: sc9-24 DS-Cav1; test: BLI (Octet), F on Ni-NTA tips, Fab in solution
[25] = target: sc9-10 DS-Cav1 A149C, Y458C S46G-E92D-S215P-K465Q (A2); test: BLI (Octet), D25 Fab binding after/before stress
[26] = target: RSV F DS-Cav1 (human RSV subtype A (strain A2)) (UniProt P03420); test: BLI (Octet), D25 Fab binding after/before stress
[27] = target: sc9-10 DS-Cav1 A149C, Y458C S46G-N67I-E92D-S215P-K465Q (A2); test: BLI (Octet), D25 Fab binding after/before stress
[28] = target: sc10 DS-Cav1; test: BLI (Octet), D25 Fab binding after/before stress
[29] = target: sc9-10 DS-Cav1 N183GC,N428C; test: BLI (Octet), D25 Fab binding after/before stress
[30] = target: RSV F sc9 DS-Cav1 (human RSV subtype A (strain A2)); test: BLI (Octet), D25 Fab binding after/before stress
[31] = target: sc9-10 DS-Cav1 A149C, Y458C S46G-S215P-K465Q (A2); test: BLI (Octet), D25 Fab binding after/before stress
[32] = target: sc9-10 A DS-Cav1 A149C, Y458C; test: BLI (Octet), D25 Fab binding after/before stress
[33] = target: sc9-10 DS-Cav1 N183GC, N428C S46G-N67I-E92D-S215P-K465Q (A2); test: BLI (Octet), D25 Fab binding after/before stress
[34] = target: RSV F sc9 DS-Cav1 (human RSV subtype A (strain A2)); test: D25 binding to heat-treated protein relative to the untreated protein (physical stability, FIG. 1E)

Motavizumab Fab
Kd [1]: 0.8 nM | Kd [2]: 0.6 nM | fractional antibody reactivity after 10 cycles of freeze-thaw [3]: 1 | fractional antibody reactivity after 50 °C [3]: 1 | fractional antibody reactivity after 70 °C [3]: 1 | fractional antibody reactivity after osmolarity 10 mM [3]: 0.9 | fractional antibody reactivity after osmolarity 3000 mM [3]: 0.6 | fractional antibody reactivity after pH 3.5 [3]: 0.8 | fractional antibody reactivity after pH 10.0 [3]: 1.1 | Kd [4]: 0.2 nM | Kd [5]: 0.04 nM | Kd [6]: 9.7 nM | Kd [7]: 16.3 nM | Kd [8]: 0.6 nM | Kd [9]: 0.04 nM | Kd [10]: 5.9 nM | Kd [11]: 0.1 nM | Kd [12]: 22.4 nM | Kd [13]: 11.1 nM | Kd [14]: 0.3 nM | Kd [15]: 16.7 nM | Kd [16]: 7.6 nM | Kd [17]: 1 nM | Kd [18]: < 0.01 nM | Kd [19]: 13.7 nM | Kd [20]: 0.4 nM | Kd [21]: 0.4 nM | Kd [22]: 0.6 nM | Kd [23]: 29.3 nM | Kd [24]: 15.1 nM

D25 Fab
fractional D25 reactivity, 50 °C [25]: 0.9 | fractional D25 reactivity, 70 °C [25]: 0.8 | fractional D25 reactivity, freeze-thaw [25]: 0.2 | fractional D25 reactivity, osmolality 10 mM [25]: 0.5 | fractional D25 reactivity, osmolality 3000 mM [25]: 0.6 | fractional D25 reactivity, pH 3.5 [25]: 3.8 | fractional D25 reactivity, pH 10.0 [25]: 0.6 | fractional D25 reactivity, 50 °C [26]: 0.9 | fractional D25 reactivity, 70 °C [26]: 0 | fractional D25 reactivity, freeze-thaw [26]: 0.1 | fractional D25 reactivity, osmolality 10 mM [26]: 0.9 | fractional D25 reactivity, osmolality 3000 mM [26]: 1 | fractional D25 reactivity, pH 3.5 [26]: 0.8 | fractional D25 reactivity, pH 10.0 [26]: 0.5 | fractional D25 reactivity, 50 °C [27]: 1 | fractional D25 reactivity, 70 °C [27]: 0.9 | fractional D25 reactivity, freeze-thaw [27]: 0.1 | fractional D25 reactivity, osmolality 10 mM [27]: 0.8 | fractional D25 reactivity, osmolality 3000 mM [27]: 0.7 | fractional D25 reactivity, pH 10.0 [27]: 0.7 | fractional D25 reactivity, 50 °C [28]: 0.3 | fractional D25 reactivity, 70 °C [28]: 0.3 | fractional D25 reactivity, freeze-thaw [28]: 0.1 | fractional D25 reactivity, osmolality 10 mM [28]: 0.1 | fractional D25 reactivity, osmolality 3000 mM [28]: 0.1 | fractional D25 reactivity, pH 3.5 [28]: 0.2 | fractional D25 reactivity, pH 10.0 [28]: 0.2 | fractional D25 reactivity, 10 cycles freeze/thaw with 5% glycerol [29]: 0.6 | fractional D25 reactivity, 10 cycles freeze/thaw with 10% glycerol [29]: 0.7 | fractional D25 reactivity, 50 °C [29]: 1 | fractional D25 reactivity, 70 °C [29]: 0.5 | fractional D25 reactivity, freeze-thaw [29]: 0.3 | fractional D25 reactivity, osmolality 10 mM [29]: 0.9 | fractional D25 reactivity, osmolality 3000 mM [29]: 0.4 | fractional D25 reactivity, pH 3.5 [29]: 2.6 | fractional D25 reactivity, pH 10.0 [29]: 0.7 | fractional D25 reactivity, 50 °C [30]: 0.4 | fractional D25 reactivity, 70 °C [30]: 0.4 | fractional D25 reactivity, freeze-thaw [30]: 0.2 | fractional D25 reactivity, osmolality 10 mM [30]: 0.1 | fractional D25 reactivity, osmolality 3000 mM [30]: 0.1 | fractional D25 reactivity, pH 3.5 [30]: 0.2 | fractional D25 reactivity, pH 10.0 [30]: 0.1 | fractional D25 reactivity, 50 °C [31]: 1 | fractional D25 reactivity, 70 °C [31]: 0.9 | fractional D25 reactivity, freeze-thaw [31]: 0.1 | fractional D25 reactivity, osmolality 10 mM [31]: 0.7 | fractional D25 reactivity, osmolality 3000 mM [31]: 0.8 | fractional D25 reactivity, pH 10.0 [31]: 0.4 | fractional D25 reactivity, 10 cycles freeze/thaw with 5% glycerol [32]: 0.6 | fractional D25 reactivity, 10 cycles freeze/thaw with 10% glycerol [32]: 0.9 | fractional D25 reactivity, 50 °C [32]: 1 | fractional D25 reactivity, 70 °C [32]: 0.8 | fractional D25 reactivity, freeze-thaw [32]: 0.3 | fractional D25 reactivity, osmolality 10 mM [32]: 0.7 | fractional D25 reactivity, osmolality 3000 mM [32]: 0.6 | fractional D25 reactivity, pH 3.5 [32]: 2.3 | fractional D25 reactivity, pH 10.0 [32]: 0.7 | fractional D25 reactivity, 50 °C [33]: 1 | fractional D25 reactivity, 70 °C [33]: 0.9 | fractional D25 reactivity, freeze-thaw [33]: 0.2 | fractional D25 reactivity, osmolality 10 mM [33]: 0.8 | fractional D25 reactivity, osmolality 3000 mM [33]: 0.7 | fractional D25 reactivity, pH 10.0 [33]: 0.5 | percent still active (site Ø retained) after 1 h at 70 °C [34]: 39% | Kd [8]: 0.2 nM | Kd [9]: 0.15 nM | Kd [11]: 0.6 nM | Kd [12]: 0.3 nM | Kd [14]: 0.2 nM | Kd [19]: 0.8 nM | Kd [20]: 0.1 nM | Kd [21]: 0.2 nM | Kd [22]: 0.2 nM
